# In publication PMC3518592 (Structure (London, England : 1993), 2012):
# B1: gp78CUE domain (453–504) (domain or fragment, human, UniProt Q9UKV5 453-504, looked up)
# chain: SNSQLNAMAHQIQEMFPQVPYHLVLQDLQLTRSVEITTDNILEGRIQVPFPT
# Legend:
# ubiquitin (D77) [1] = target: T1, ubiquitin (D77) (UniProt P0CG48 1-76, D77); assay: NMR titration
# ubiquitin (D77) [2] = target: T1, ubiquitin (D77); assay: ITC
# ubiquitin (D77) [3] = target: T1, ubiquitin (D77); assay: ITC; remark: listed apart in the source
binder,measurement,setting,value
B1,Kd,ubiquitin (D77) [1],13.6 ± 12 µM
same,Kd,ubiquitin (D77) [2],12.8 ± 0.7 µM
same,dH,ubiquitin (D77) [3],-3.418 ± 0.0239 kcal/mol
same,stoichiometry N,ubiquitin (D77) [3],0.91
